According to patent US10718784B2, “Mitochondrial preproteins as markers for Alzheimer's disease” (Albert-Ludwigs-Universität Freiburg, priority 2014, dated 2020):

How the values were obtained:
Oct1 = molecular target: T1, Oct1 (Saccharomyces cerevisiae, UniProt P35999); assay: In vitro processing of [35S]Cox4 precursor in yeast mitochondrial extract in the presence of octapeptides; format: biochemical; settings: cym1Δ mitochondrial extract
T1 construct: endogenous in cells; host or cells: soluble extract of wild-type and cym1Δ S. cerevisiae mitochondria
T1 sequence (P35999 38-772): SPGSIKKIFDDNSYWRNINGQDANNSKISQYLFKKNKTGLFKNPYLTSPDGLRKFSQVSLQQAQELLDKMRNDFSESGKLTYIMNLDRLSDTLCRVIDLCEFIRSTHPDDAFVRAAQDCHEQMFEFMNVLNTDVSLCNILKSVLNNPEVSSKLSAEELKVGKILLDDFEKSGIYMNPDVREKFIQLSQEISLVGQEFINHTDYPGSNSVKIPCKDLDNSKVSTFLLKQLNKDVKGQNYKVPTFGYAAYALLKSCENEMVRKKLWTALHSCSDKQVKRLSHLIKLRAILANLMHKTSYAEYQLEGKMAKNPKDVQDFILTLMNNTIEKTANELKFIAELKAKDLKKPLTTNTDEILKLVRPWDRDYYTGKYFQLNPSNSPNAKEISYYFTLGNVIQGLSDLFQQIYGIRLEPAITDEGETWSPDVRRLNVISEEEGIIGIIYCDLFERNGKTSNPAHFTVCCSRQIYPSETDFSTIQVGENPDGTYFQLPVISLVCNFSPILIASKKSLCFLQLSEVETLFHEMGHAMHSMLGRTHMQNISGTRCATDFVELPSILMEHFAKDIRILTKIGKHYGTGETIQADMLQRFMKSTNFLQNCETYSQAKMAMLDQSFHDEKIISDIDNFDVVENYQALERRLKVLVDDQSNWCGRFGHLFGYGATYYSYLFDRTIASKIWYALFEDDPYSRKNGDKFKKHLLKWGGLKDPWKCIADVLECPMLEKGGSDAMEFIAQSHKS
Experimental: (§1) Isolated mitochondria from yeast strains grown under respiratory conditions were washed with SEM buffer, re-isolated and resuspended in reaction buffer (250 mM sucrose, 10 mM MOPS/KOH, pH 7.2, 80 mM KCl, 5 mM MgCl2, 5 mM KH2PO4) to a concentration of 3 μg/μl. Mitochondria were subjected to sonication (five times 30 s with 30 s breaks on ice, Sonifier250, Branson) followed by centrifugation at 100,000×g for 45 min at 4° C. The obtained supernatant was used for processing and degradation experiments. 0.5 μl of radiolabelled precursor protein and/or various peptides in different concentrations were added to 9 μl of yeast soluble mitochondrial extracts. Reactions were stopped by addition of 4× Laemmli buffer (8% (w/v) SDS, 0.08% (w/v) bromophenol blue, 40% (v/v) glycerol, 240 mM Tris/HCl, pH 6.8) containing 5% (v/v) β-mercaptoethanol and analyzed by SDS-PAGE followed by autoradiography and immunodecoration. Radiolabelled precursor proteins were synthesized with the transcription/translation rabbit reticulate lysate system (Promega) in the presence of ^35S-methionine. Chemical amounts of Cym1 and control protein (Oct1) were synthesized in vitro using the RTS wheat germ system (5 PRIME). 0.5 μl of cell-free translation product was used in the processing assays.

Purified yeast MPP = molecular target: T2, Purified yeast MPP (Saccharomyces cerevisiae, UniProt P10507+P11914); assay: MPP activity assay: processing of [35S]F1β precursor by purified MPP; format: biochemical, S. cerevisiae; settings: radiolabelled F1β precursor, increasing peptide concentrations
T2 construct: poly-histidine (N); made in house; host or cells: E. coli BL21, plasmid pVG18
Experimental: E. coli BL21 cells were transformed with plasmid pVG18 (32) that enables the transcription of a single mRNA encoding both β- (with N-terminal poly-histidine tag) and α-MPP subunits (Mas1 and Mas2) from S. cerevisiae. Cell cultures were grown in LB medium (10 g/l tryptone, 5 g/l yeast extract, 10 g/l NaCl) containing 100 μg/ml ampicillin at 37° C. to an OD600 of 0.6. Expression was induced by addition of 1 mM IPTG (Isopropyl β-D-1-thiogalactopyranoside, Formedium) for 4 h. Cells were harvested and snap-frozen in liquid nitrogen. Pellets were resuspended in binding buffer (20 mM Na3PO4, 200 mM NaCl, 20 mM imidazole, pH 7.4) containing 1 mg/ml lysozyme (Sigma) and 10 μg/ml DNaseI (Sigma) and incubated for 1 h at 4° C. for cell lysis. The cell extract was centrifuged at 4000×g to remove unbroken cells. The supernatant was further centrifuged at 100,000×g for 30 min at 4° C. The obtained supernatant was incubated with Ni-NTA resin (Qiagen) for 3 h at 4° C. The resin was washed four times with binding buffer. Bound proteins were eluted with Elution buffer (20 mM Na3PO4, 200 mM NaCl, 200 mM imidazole, pH 7.4). […]
Purified yeast MPP (0.15 μg protein) was incubated in processing buffer (10 mM HEPES/KOH, pH 7.4, 0.1 mM MnCl2, 1 mM DTT, 0.1 mg/ml BSA) for 15 min at 30° C. […] The samples were analyzed by SDS-PAGE followed by autoradiography. Bands were quantified using the Multi Gauge software (Fuji Film). […]

Cym1 = molecular target: T3, Cym1 (Saccharomyces cerevisiae, UniProt P32898); assay: Peptide degradation assay in soluble mitochondrial extracts; format: biochemical, yeast
T3 construct: endogenous in cells; host or cells: soluble extract of wild-type S. cerevisiae mitochondria (cym1Δ extract as control)
T3 sequence (P32898 17-989): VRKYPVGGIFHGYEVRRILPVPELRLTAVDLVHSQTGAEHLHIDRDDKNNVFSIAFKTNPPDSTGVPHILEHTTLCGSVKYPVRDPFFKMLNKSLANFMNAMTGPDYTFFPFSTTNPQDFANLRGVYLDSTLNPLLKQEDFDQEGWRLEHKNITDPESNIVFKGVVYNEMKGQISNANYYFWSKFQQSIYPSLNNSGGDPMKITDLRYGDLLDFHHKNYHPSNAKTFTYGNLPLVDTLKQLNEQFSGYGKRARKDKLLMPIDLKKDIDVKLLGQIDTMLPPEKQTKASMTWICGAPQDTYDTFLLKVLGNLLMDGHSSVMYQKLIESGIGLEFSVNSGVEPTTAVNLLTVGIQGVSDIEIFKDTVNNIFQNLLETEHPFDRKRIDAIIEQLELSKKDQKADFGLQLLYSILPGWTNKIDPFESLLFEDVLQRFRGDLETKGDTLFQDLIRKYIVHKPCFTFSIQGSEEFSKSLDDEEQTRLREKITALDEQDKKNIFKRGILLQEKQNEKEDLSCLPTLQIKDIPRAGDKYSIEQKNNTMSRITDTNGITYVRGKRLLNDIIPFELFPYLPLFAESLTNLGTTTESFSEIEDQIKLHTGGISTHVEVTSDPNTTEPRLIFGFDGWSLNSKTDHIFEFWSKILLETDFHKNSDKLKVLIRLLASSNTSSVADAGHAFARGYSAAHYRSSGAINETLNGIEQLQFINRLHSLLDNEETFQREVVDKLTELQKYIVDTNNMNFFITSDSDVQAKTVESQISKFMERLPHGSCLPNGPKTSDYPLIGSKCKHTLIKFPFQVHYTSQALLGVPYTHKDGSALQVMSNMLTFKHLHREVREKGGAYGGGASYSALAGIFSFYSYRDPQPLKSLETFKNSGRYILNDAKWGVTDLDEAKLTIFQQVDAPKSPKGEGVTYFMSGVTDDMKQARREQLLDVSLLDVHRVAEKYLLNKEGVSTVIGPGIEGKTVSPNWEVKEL
Experimental: as §1

MPP = molecular target: T4, MPP (Saccharomyces cerevisiae, UniProt P10507+P11914); assay: In vitro processing of [35S]Sod2 precursor in yeast soluble mitochondrial extracts; format: biochemical
T4 construct: endogenous in cells; host or cells: soluble extract of mitochondria isolated from S. cerevisiae strains (wild-type, cym1Δ)
T4 sequence (P10507 21-462): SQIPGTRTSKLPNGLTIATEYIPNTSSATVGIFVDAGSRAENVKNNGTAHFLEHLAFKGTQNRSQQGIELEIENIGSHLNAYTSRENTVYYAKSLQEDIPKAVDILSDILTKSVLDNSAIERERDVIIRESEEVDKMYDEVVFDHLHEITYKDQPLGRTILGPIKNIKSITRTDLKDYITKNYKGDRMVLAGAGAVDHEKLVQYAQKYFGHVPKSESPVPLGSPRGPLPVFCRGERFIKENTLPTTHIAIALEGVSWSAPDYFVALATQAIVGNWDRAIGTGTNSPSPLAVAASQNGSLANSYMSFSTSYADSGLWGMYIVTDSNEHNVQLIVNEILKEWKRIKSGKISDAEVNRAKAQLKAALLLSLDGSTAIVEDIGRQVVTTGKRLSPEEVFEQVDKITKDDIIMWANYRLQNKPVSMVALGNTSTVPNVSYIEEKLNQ
T4 sequence (P11914 14-482): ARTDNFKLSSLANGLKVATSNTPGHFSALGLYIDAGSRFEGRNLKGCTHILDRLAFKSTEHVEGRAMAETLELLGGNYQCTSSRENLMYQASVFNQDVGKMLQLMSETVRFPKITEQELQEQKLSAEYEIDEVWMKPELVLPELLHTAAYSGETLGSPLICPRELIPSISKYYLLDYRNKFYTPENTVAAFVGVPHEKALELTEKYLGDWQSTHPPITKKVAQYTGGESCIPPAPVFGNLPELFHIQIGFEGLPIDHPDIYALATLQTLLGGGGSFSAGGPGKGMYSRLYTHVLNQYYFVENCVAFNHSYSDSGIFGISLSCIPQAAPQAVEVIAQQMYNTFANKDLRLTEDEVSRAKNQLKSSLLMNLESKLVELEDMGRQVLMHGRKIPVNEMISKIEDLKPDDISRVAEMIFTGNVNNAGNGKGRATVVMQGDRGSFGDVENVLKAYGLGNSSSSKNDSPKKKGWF
Experimental: as §1

octapeptides: octapeptide derived from the Oct1 substrate Sdh1, FTSSALVR (SEQ ID No.: 16), EZ Biolab
Oct1-dependent processing step of Cox4 precursor in the presence of octapeptides (Oct1): specific impairment of the Oct1-dependent processing step | Processing activity of purified MPP on F1β precursor in the presence of peptide (Purified yeast MPP): not affected

Aβ^scrambled: scrambled Aβ peptide KVKGLIDGDHIGDLVYEFMDSNSAIFREGVGAGHVHVAQVEF (SEQ ID No.: 19)
Effect on Cox4 presequence peptide degradation (Cym1; WT soluble mitochondrial extract, 10 μM Cox4 presequence peptide in each reaction): not

Cox4^preseq.: typical presequence peptide MLSLRQSIRFFKPATRTLCSSRYLL (SEQ ID No.: 15)
Processing activity of purified MPP on F1β precursor in the presence of peptide (Purified yeast MPP): able to inhibit purified MPP | In vitro processing of radiolabelled Sod2 precursor by MPP in the presence of presequence peptide (MPP; cym1Δ mitochondrial extract (absence of Cym1), 10 μM Cox4 presequence peptide): efficiently blocked | Degradation of the peptide in wild-type mitochondrial extract (Cym1; wild-type (WT) extract, peptide 10 μM): Rapid degradation

B1: cell-free translated Cym1 protein: yeast PreP homolog Cym1 synthesized in vitro using the RTS wheat germ system (protein)
chain: MLRFQRFASSYAQAQAVRKYPVGGIFHGYEVRRILPVPELRLTAVDLVHSQTGAEHLHIDRDDKNNVFSIAFKTNPPDSTGVPHILEHTTLCGSVKYPVRDPFFKMLNKSLANFMNAMTGPDYTFFPFSTTNPQDFANLRGVYLDSTLNPLLKQEDFDQEGWRLEHKNITDPESNIVFKGVVYNEMKGQISNANYYFWSKFQQSIYPSLNNSGGDPMKITDLRYGDLLDFHHKNYHPSNAKTFTYGNLPLVDTLKQLNEQFSGYGKRARKDKLLMPIDLKKDIDVKLLGQIDTMLPPEKQTKASMTWICGAPQDTYDTFLLKVLGNLLMDGHSSVMYQKLIESGIGLEFSVNSGVEPTTAVNLLTVGIQGVSDIEIFKDTVNNIFQNLLETEHPFDRKRIDAIIEQLELSKKDQKADFGLQLLYSILPGWTNKIDPFESLLFEDVLQRFRGDLETKGDTLFQDLIRKYIVHKPCFTFSIQGSEEFSKSLDDEEQTRLREKITALDEQDKKNIFKRGILLQEKQNEKEDLSCLPTLQIKDIPRAGDKYSIEQKNNTMSRITDTNGITYVRGKRLLNDIIPFELFPYLPLFAESLTNLGTTTESFSEIEDQIKLHTGGISTHVEVTSDPNTTEPRLIFGFDGWSLNSKTDHIFEFWSKILLETDFHKNSDKLKVLIRLLASSNTSSVADAGHAFARGYSAAHYRSSGAINETLNGIEQLQFINRLHSLLDNEETFQREVVDKLTELQKYIVDTNNMNFFITSDSDVQAKTVESQISKFMERLPHGSCLPNGPKTSDYPLIGSKCKHTLIKFPFQVHYTSQALLGVPYTHKDGSALQVMSNMLTFKHLHREVREKGGAYGGGASYSALAGIFSFYSYRDPQPLKSLETFKNSGRYILNDAKWGVTDLDEAKLTIFQQVDAPKSPKGEGVTYFMSGVTDDMKQARREQLLDVSLLDVHRVAEKYLLNKEGVSTVIGPGIEGKTVSPNWEVKEL
MPP processing activity (Sod2 precursor) after addition of Cym1 protein (MPP; cym1Δ mitochondrial extract): could be restored
